In paper PMC11446282:

B1: IER2_HUMAN (protein, UniProt Q9BTL4 1-223, looked up)
Immediate early response gene …: MEVQKEAQRIMTLSVWKMYHSRMQRGGLRLHRSLQLSLVMRSARELYLSAKVEALEPEVSLPAALPSDPRLHPPREAESTAETATPDGEHPFPEPMDTQEAPTAEETSACCAPRPAKVSRKRRSSSLSDGGDAGLVPSKKARLEEKEEEEGASSEVADRLQPPPAQAEGAFPNLARVLQRRFSGLLNCSPAAPPTAPPACEAKPACRPADSMLNVLVRAVVAF
B2: AMOL2_HUMAN (protein, UniProt Q9Y2J4 1-779, looked up)
Angiomotin-like protein 2: MRTLEDSSGTVLHRLIQEQLRYGNLTETRTLLAIQQQALRGGAGTGGTGSPQASLEILAPEDSQVLQQATRQEPQGQEHQGGENHLAENTLYRLCPQPSKGEELPTYEEAKAHSQYYAAQQAGTRPHAGDRDPRGAPGGSRRQDEALRELRHGHVRSLSERLLQLSLERNGARAPSHMSSSHSFPQLARNQQGPPLRGPPAEGPESRGPPPQYPHVVLAHETTTAVTDPRYRARGSPHFQHAEVRILQAQVPPVFLQQQQQYQYLQQSQEHPPPPHPAALGHGPLSSLSPPAVEGPVSAQASSATSGSAHLAQMEAVLRENARLQRDNERLQRELESSAEKAGRIEKLESEIQRLSEAHESLTRASSKREALEKTMRNKMDSEMRRLQDFNRDLRERLESANRRLASKTQEAQAGSQDMVAKLLAQSYEQQQEQEKLEREMALLRGAIEDQRRRAELLEQALGNAQGRAARAEEELRKKQAYVEKVERLQQALGQLQAACEKREQLELRLRTRLEQELKALRAQQRQAGAPGGSSGSGGSPELSALRLSEQLREKEEQILALEADMTKWEQKYLEERAMRQFAMDAAATAAAQRDTTLIRHSPQPSPSSSFNEGLLTGGHRHQEMESRLKVLHAQILEKDAVIKVLQQRSRRDPGKAIQGSLRPAKSVPSVFAAAAAGTQGWQGLSSSERQTADAPARLTTDRAPTEEPVVTAPPAAHAKHGSRDGSTQTEGPPDSTSTCLPPEPDSLLGCSSSQRAASLDSVATSRVQDLSDMVEILI
B3: PPME1_HUMAN (protein, UniProt Q9Y570 2-386, looked up)
Protein phosphatase …: SALEKSMHLGRLPSRPPLPGSGGSQSGAKMRMGPGRKRDFSPVPWSQYFESMEDVEVENETGKDTFRVYKSGSEGPVLLLLHGGGHSALSWAVFTAAIISRVQCRIVALDLRSHGETKVKNPEDLSAETMAKDVGNVVEAMYGDLPPPIMLIGHSMGGAIAVHTASSNLVPSLLGLCMIDVVEGTAMDALNSMQNFLRGRPKTFKSLENAIEWSVKSGQIRNLESARVSMVGQVKQCEGITSPEGSKSIVEGIIEEEEEDEEGSESISKRKKEDDMETKKDHPYTWRIELAKTEKYWDGWFRGLSNLFLSCPIPKLLLLAGVDRLDKDLTIGQMQGKFQMQVLPQCGHAVHEDAPDKVAEAVATFLIRHRFAEPIGGFQCVFPGC
B4: SIK2_HUMAN (protein, UniProt Q9H0K1 1-926, looked up)
Serine/threonine-protein …: MVMADGPRHLQRGPVRVGFYDIEGTLGKGNFAVVKLGRHRITKTEVAIKIIDKSQLDAVNLEKIYREVQIMKMLDHPHIIKLYQVMETKSMLYLVTEYAKNGEIFDYLANHGRLNESEARRKFWQILSAVDYCHGRKIVHRDLKAENLLLDNNMNIKIADFGFGNFFKSGELLATWCGSPPYAAPEVFEGQQYEGPQLDIWSMGVVLYVLVCGALPFDGPTLPILRQRVLEGRFRIPYFMSEDCEHLIRRMLVLDPSKRLTIAQIKEHKWMLIEVPVQRPVLYPQEQENEPSIGEFNEQVLRLMHSLGIDQQKTIESLQNKSYNHFAAIYFLLVERLKSHRSSFPVEQRLDGRQRRPSTIAEQTVAKAQTVGLPVTMHSPNMRLLRSALLPQASNVEAFSFPASGCQAEAAFMEEECVDTPKVNGCLLDPVPPVLVRKGCQSLPSNMMETSIDEGLETEGEAEEDPAHAFEAFQSTRSGQRRHTLSEVTNQLVVMPGAGKIFSMNDSPSLDSVDSEYDMGSVQRDLNFLEDNPSLKDIMLANQPSPRMTSPFISLRPTNPAMQALSSQKREVHNRSPVSFREGRRASDTSLTQGIVAFRQHLQNLARTKGILELNKVQLLYEQIGPEADPNLAPAAPQLQDLASSCPQEEVSQQQESVSTLPASVHPQLSPRQSLETQYLQHRLQKPSLLSKAQNTCQLYCKEPPRSLEQQLQEHRLQQKRLFLQKQSQLQAYFNQMQIAESSYPQPSQQLPLPRQETPPPSQQAPPFSLTQPLSPVLEPSSEQMQYSPFLSQYQEMQLQPLPSTSGPRAAPPLPTQLQQQQPPPPPPPPPPRQPGAAPAPLQFSYQTCELPSAASPAPDYPTPCQYPVDGAQQSDLTGPDCPRSPGLQEAPSSYDPLALSELPGLFDCEMLDAVDPQHNGYVLVN
B5: IER5_HUMAN (protein, UniProt Q5VY09 1-327, looked up)
Immediate early response gene …: MEFKLEAHRIVSISLGKIYNSRVQRGGIKLHKNLLVSLVLRSARQVYLSDPCPGLYLAGPAGTPAPPPQQQPGEPAAGPPAGWGEPPPPAARASWPETEPQPERSSVSDAPRVGDEVPVATVTGVGDVFQGGEADATEAAWSRVEGPRQAAAREAEGTAGGWGVFPEVSRAARRPCGCPLGGEDPPGTPAATPRAACCCAPQPAEDEPPAPPAVCPRKRCAAGVGGGPAGCPAPGSTPLKKPRRNLEQPPSGGEDDDAEEMETGNVANLISIFGSSFSGLLRKSPGGGREEEEGEESGPEAAEPGQICCDKPVLRDMNPWSTAIVAF
B6: ACOT8_HUMAN (protein, UniProt O14734 1-319, looked up)
Acyl-coenzyme A thioesterase 8: MSSPQAPEDGQGCGDRGDPPGDLRSVLVTTVLNLEPLDEDLFRGRHYWVPAKRLFGGQIVGQALVAAAKSVSEDVHVHSLHCYFVRAGDPKLPVLYQVERTRTGSSFSVRSVKAVQHGKPIFICQASFQQAQPSPMQHQFSMPTVPPPEELLDCETLIDQYLRDPNLQKRYPLALNRIAAQEVPIEIKPVNPSPLSQLQRMEPKQMFWVRARGYIGEGDMKMHCCVAAYISDYAFLGTALLPHQWQHKVHFMVSLDHSMWFHAPFRADHWMLYECESPWAGGSRGLVHGRLWRQDGVLAVTCAQEGVIRVKPQVSESKL
B7: AIFM2_HUMAN (protein, UniProt Q9BRQ8 2-373, looked up)
Ferroptosis suppressor …: GSQVSVESGALHVVIVGGGFGGIAAASQLQALNVPFMLVDMKDSFHHNVAALRASVETGFAKKTFISYSVTFKDNFRQGLVVGIDLKNQMVLLQGGEALPFSHLILATGSTGPFPGKFNEVSSQQAAIQAYEDMVRQVQRSRFIVVVGGGSAGVEMAAEIKTEYPEKEVTLIHSQVALADKELLPSVRQEVKEILLRKGVQLLLSERVSNLEELPLNEYREYIKVQTDKGTEVATNLVILCTGIKINSSAYRKAFESRLASSGALRVNEHLQVEGHSNVYAIGDCADVRTPKMAYLAGLHANIAVANIVNSVKQRPLQAYKPGALTFLLSMGRNDGVGQISGFYVGRLMVRLTKSRDLFVSTSWKTMRQSPP
B8: RBM7_HUMAN (protein, UniProt Q9Y580 2-266, looked up)
RNA-binding protein 7: GAAAAEADRTLFVGNLETKVTEELLFELFHQAGPVIKVKIPKDKDGKPKQFAFVNFKHEVSVPYAMNLLNGIKLYGRPIKIQFRSGSSHAPQDVSLSYPQHHVGNSSPTSTSPSRYERTMDNMTSSAQIIQRSFSSPENFQRQAVMNSALRQMSYGGKFGSSPLDQSGFSPSVQSHSHSFNQSSSSQWRQGTPSSQRKVRMNSYPYLADRHYSREQRYTDHGSDHHYRGKRDDFFYEDRNHDDWSHDYDNRRDSSRDGKWRSSRH
B9: FOXC1_HUMAN (protein, UniProt Q12948 1-553, looked up)
Forkhead box protein C1: MQARYSVSSPNSLGVVPYLGGEQSYYRAAAAAAGGGYTAMPAPMSVYSHPAHAEQYPGGMARAYGPYTPQPQPKDMVKPPYSYIALITMAIQNAPDKKITLNGIYQFIMDRFPFYRDNKQGWQNSIRHNLSLNECFVKVPRDDKKPGKGSYWTLDPDSYNMFENGSFLRRRRRFKKKDAVKDKEEKDRLHLKEPPPPGRQPPPAPPEQADGNAPGPQPPPVRIQDIKTENGTCPSPPQPLSPAAALGSGSAAAVPKIESPDSSSSSLSSGSSPPGSLPSARPLSLDGADSAPPPPAPSAPPPHHSQGFSVDNIMTSLRGSPQSAAAELSSGLLASAAASSRAGIAPPLALGAYSPGQSSLYSSPCSQTSSAGSSGGGGGGAGAAGGAGGAGTYHCNLQAMSLYAAGERGGHLQGAPGGAGGSAVDDPLPDYSLPPVTSSSSSSLSHGGGGGGGGGGQEAGHHPAAHQGRLTSWYLNQAGGDLGHLASAAAAAAAAGYPGQQQNFHSVREMFESQRIGLNNSPVNGNSSCQMAFPSSQSLYRTSGAFVYDCSKF

Tested on: B55α interactors
Experiment: MS analysis of B55α WT, V228A, I284A, S287A and D340A immunopurifications
Format: binding, human
Details: log2 ratio of interactor abundance, 4 replicates each, normalised to bait B55α; for log2_ratio_D340_WT: B55α D340A vs WT immunopurification; for log2_ratio I284_WT: B55α I284A vs WT immunopurification; for log2_ratio S287_WT: B55α S287A vs WT immunopurification; for log2_ratio V228_WT: B55α V228A vs WT immunopurification
Procedure: Standard cloning techniques were used throughout. Point mutations were introduced by whole plasmid polymerase chain reaction (PCR). All constructs were fully sequenced. Synthetic DNA was purchased from GeneArt, Life Technologies and cloned into pcDNA5/FRT/TO (Invitrogen) expression vector containing YFP, resulting in the indicated YFP fusion proteins. These constructs were transiently transfected into HeLa cells 24 hours before harvesting cells. Cells were lysed in lysis buffer [50 mM tris-HCl (pH 7.5), 50 mM NaCl, 1 mM EDTA, 1 mM […], and 0.1% NP-40]. Complexes were immunoprecipitated at 4°C in lysis buffer with green fluorescent protein (GFP)–Trap (ChromoTek) and washed in lysis buffer. Precipitated protein complexes were washed three times in lysis buffer, eluted in 2× SDS sample buffer, and subjected to Western blotting or MS as indicated.
Pull-downs were analyzed on a Q-Exactive Plus quadrupole or Fusion Orbitrap Lumos mass spectrometer (Thermo Fisher Scientific) equipped with Easy-nLC 1000 or […] (Thermo Fisher Scientific) and nanospray source (Thermo Fisher Scientific).
Static modifications included carbamidomethylcysteine, and variable modifications included oxidized methionine and STY phosphorylation. Searches were filtered using orthogonal measures including mass measurement accuracy (±3 parts per million), Xcorr for charges from +2 to +4, and dCn targeting a <1% false discovery rate at the peptide level. Quantification of LC-MS/MS spectra was performed using MassChroQ ([57]) and the iBAQ method ([58]). All data were analyzed using R 4.3.0. Missing values were imputed from a normal distribution. […] In each dataset, the abundance of the protein of interest was normalized to be equal across all samples. Statistical analyses were done using a two-tailed Student’s t test.

Molecule	log2_ratio_D340_WT	log2_ratio I284_WT	log2_ratio S287_WT	log2_ratio V228_WT
B1	-8.18	-0.03	0.35	-2.82
B2	2.17	3.49	2.56	
B3	-3.73	-7.04	-10.17	-9.33
B4	2.13	-0.65	-1.90	-3.24
B5	-7.50	0.57	-6.37	-5.72
B6	-0.23		0.94	
B7	-0.14	-0.15	0.33	-0.53
B8	-4.64	-3.46	0.85	-3.26
B9	-5.21	-3.45	0.53	-2.65
